B1: Hu32a-85.IgG4AA (antibody, V domains shown)
VH: EVQLVQSGAEVKKPGSSVKVSCKASDFTFTDYEIHWVKQAPGHGLEWIGLFDPETGGIVYNQKFKGKATLTADKSTSTAYMEFSSLRSEDTAVYYCTREGYNRDWYFDVWGQGTTVTVSS
VL: DIVMTQTPLSLPVTPGEPASISCRSSQSLVHSTGNTYLEWYLQKPGQSPQLLIYKVSNRFSGVPDRFSGSGSGTDFTLKISRVEAEDVGVYYCFQGSHVPYTFGGGTKVEIKR
notes: Full-length IgG4-AA (S228P, F234A, L235A) antibody with kappa light chain
B2: Hu23-11.IgG4AA (antibody, V domains shown)
VH: EVQLVQSGAEVKKPGSSVKVSCKASGGTFSDYEMHWVRQAPGQGLEWMGLIDPETGGTVYNQKFKDRVTITADKSTSTAYMELSSLRSEDTAVYYCARERFSYYGSTSDWYFDVWGQGTTVTVSS
VL: B1 VL
notes: Full-length IgG4-AA (S228P, F234A, L235A) antibody with kappa light chain; LCDR1 mutant N28T (Kabat)
B3: H005-1 (antibody, V domains shown)
VH: EVQLVESGGGLVQPGGSLRLSCAASGFTFSSYMMSWVRQAPGKGLEWVATISGGGANTYYPDSVKGRFTISRDNAKNSLYLQMNSLRAEDTAVYYCARQLYYFDYWGQGTTVTVSS
VL: DIQMTQSPSSLSASVGDRVTITCLASQTIGTWLTWYQQKPGKAPKLLIYTATSLADGVPSRFSGSGSGTDFTLTISSLQPEDFATYYCQQVYSIPWTFGGGTKVEIKR

molecular target: T1, PD-1-His protein (Cat. #10377H08H, Sino Biological) (human, UniProt Q15116 25-167); assay: ELISA, PD-1-His coated, HRP goat anti-human IgG detection
T1 construct: Bought reagent; also called huPD-1-his; hu PD-1-his; not shown: His tag of the bought protein
T1 sequence (Q15116 25-167 limits assumed): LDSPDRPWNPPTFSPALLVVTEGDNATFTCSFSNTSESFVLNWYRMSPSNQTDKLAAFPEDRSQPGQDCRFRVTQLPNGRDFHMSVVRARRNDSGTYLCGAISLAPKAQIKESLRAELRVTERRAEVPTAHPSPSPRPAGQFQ

Binder | OD value MAX
B1 | 1.26
B2 | 1.46
B3 | 1.21

Source: US20230295329A1 (published 2023)
